Assays:
[1] = target: T1, human DR4 (Death Receptor 4), cell surface expressed on human tumor cell lines (human, UniProt O00220 24-468); test: flow cytometry, DLD-1 cells, n = 1
T1 construct: also called TNFRSF10A; TRAIL-R1
T1 sequence: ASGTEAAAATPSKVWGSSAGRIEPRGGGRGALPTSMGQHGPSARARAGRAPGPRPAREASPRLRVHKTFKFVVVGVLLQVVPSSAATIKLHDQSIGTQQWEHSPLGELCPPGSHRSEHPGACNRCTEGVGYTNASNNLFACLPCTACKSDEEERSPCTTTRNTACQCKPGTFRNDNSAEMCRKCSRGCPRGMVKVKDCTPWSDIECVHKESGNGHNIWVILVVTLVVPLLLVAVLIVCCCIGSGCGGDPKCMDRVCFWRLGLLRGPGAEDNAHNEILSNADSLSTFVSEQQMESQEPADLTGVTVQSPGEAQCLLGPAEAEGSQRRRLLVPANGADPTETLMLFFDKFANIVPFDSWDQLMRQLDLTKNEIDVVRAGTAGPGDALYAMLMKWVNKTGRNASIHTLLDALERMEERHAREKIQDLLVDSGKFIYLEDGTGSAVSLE

[2] = target: T1, human DR4 (Death Receptor 4), cell …; test: flow cytometry, DLD-1 cells, n = 2
[3] = target: T1, human DR4 (Death Receptor 4), cell …; test: flow cytometry, PANC-1 cells, n = 2
[4] = target: T1, human DR4 (Death Receptor 4), cell …; test: flow cytometry, HCT-116 cells, n = 1
[5] = target: T2, human FAPα (Fibroblast activation protein alpha), cell surface expressed (human, UniProt Q12884 1-760); test: flow cytometry, human lung fibroblasts, n = 1
T2 construct: Endogenous on human lung fibroblasts and CAFs
T2 sequence: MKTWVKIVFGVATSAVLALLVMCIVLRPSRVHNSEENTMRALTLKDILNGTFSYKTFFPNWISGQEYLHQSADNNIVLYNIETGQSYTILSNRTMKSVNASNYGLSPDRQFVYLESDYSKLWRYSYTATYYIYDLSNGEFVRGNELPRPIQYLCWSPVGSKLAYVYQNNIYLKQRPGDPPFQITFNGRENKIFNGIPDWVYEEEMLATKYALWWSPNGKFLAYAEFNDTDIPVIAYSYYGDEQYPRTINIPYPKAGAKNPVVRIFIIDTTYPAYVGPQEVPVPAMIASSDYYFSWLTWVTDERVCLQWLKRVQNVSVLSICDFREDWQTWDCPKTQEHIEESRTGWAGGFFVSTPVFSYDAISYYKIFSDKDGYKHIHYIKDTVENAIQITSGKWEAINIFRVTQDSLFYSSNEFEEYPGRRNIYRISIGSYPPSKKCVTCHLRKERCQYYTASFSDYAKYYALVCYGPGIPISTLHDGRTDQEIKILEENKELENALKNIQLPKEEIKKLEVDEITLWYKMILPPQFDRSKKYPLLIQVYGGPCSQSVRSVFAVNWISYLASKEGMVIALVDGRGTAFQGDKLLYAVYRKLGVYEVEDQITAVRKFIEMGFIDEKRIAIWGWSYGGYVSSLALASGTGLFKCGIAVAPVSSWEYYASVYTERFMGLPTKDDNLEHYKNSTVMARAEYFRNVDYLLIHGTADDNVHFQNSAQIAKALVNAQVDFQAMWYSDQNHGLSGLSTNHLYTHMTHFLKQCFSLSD
Protocol: (§1) Binding of bispecific or monoclonal antibodies carrying the anti-FAPα arm derived from IgG1-FAPα-FERL (BisG1-FAPα-FERL/DR4-FERR, BisG1-FAPα-FERL/b12-FERR, and IgG1-FAPα-FERL) to cell surface expressed human FAPα was analyzed by flow cytometry using human lung fibroblasts and CAFs, which endogenously express FAPα. BisG1-b12-FERL/b12-FERR was used as negative control.
(§2) Human lung fibroblasts and CAFs (50,000 cells/well) were seeded in 96-Well round bottom plates (Greiner Bio-one, Cat #650101). Antibody dilutions were prepared using fluorescence-activated cell sorting (FACS) buffer, consisting of phosphate buffer saline (PBS, Lonza, Cat #BE17-517Q)+1% Bovine Serum Albumin (BSA, Roche, Cat #10735086001)+0.02% Sodium Azide (Bio-World, Cat #41920044-3). Plates were centrifuged, supernatant was removed, cells were resuspended in 50 μL of human Fc Block (BD, Cat #564220, diluted 1:100 in FACS buffer) and 50 μL of viability stain TO-PRO-3 Iodide (Thermo Fisher, Cat #T3605, diluted 1: 25,000 in FACS buffer), and incubated for 15 min at 4° C. Plates were washed three times with FACS buffer. Plates were centrifuged, supernatant was removed, cells were resuspended in 50 μL of antibody dilutions (concentration range 90-0.0005 μg/mL, three-fold dilution steps using FACS buffer) of BisG1-FAPα-FERL/DR4-FERR, BisG1-FAPα-FERL/b12-FERR, BisG1-b12-FERL/b12-FERR (top six concentrations only for CAFs culture) or IgG1-FAPα-FERL (top four concentrations only for CAFs culture) and incubated for 30 min at 4° C. Cells were washed three times with FACS buffer and resuspended in 50 μL of Fluorescein isothiocyanate (FITC)-labeled polyclonal antibody goat anti-mouse IgG1 (Jackson Immuno Research, Cat #109-096-097, diluted 1:100 in FACS buffer). […] Antibody binding to viable cells (TO-PRO-3 negative) was analyzed by flow cytometry on a FACSCelesta™ (BD biosciences) and data were processed using FlowJo_v10.8.1 (FlowJo LLC). Geomean fluorescence intensity, gMFI, was determined and visualized using GraphPad Prism.

[6] = target: T2, human FAPα (Fibroblast activation …); test: flow cytometry, human lung fibroblasts, average ± SEM
Protocol: as §1, §2

B1: BisG1-FAPα-FERL/DR4-FERR (bispecific antibody, human IgG1, kappa, lambda)
heavy 1: EVQLLESGGGLVQPGGSPRLSCEASGFTFSSYALSWVRQAPGKGLEWVSAISGSGGGRYYADSVKGRFTISRDNSKNTLFLQMNSLRAEDTAVYYCAKEGYSSSGTYWDHWGQGTLVTVSSASTKGPSVFPLAPSSKSTSGGTAALGCLVKDYFPEPVTVSWNSGALTSGVHTFPAVLQSSGLYSLSSVVTVPSSSLGTQTYICNVNHKPSNTKVDKRVEPKSCDKTHTCPPCPAPEFERGPSVFLFPPKPKDTLMISRTPEVTCVVVDVSHEDPEVKFNWYVDGVEVHNAKTKPREEQYNSTYRVVSVLTVLHQDWLNGKEYKCKVSNKALPAPIEKTISKAKGQPREPQVYTLPPSREEMTKNQVSLTCLVKGFYPSDIAVEWESNGQPENNYKTTPPVLDSDGSFLLYSKLTVDKSRWQQGNVFSCSVMHEALHNHYTQKSLSLSPG
light 1: AIQMTQSPSSVSASVGDRVTITCRASQGVSSWLAWYQQKPGRAPKLLIYVASTLQSGVPSRFSGSGSGTDFTLTINSLQPEDFATYYCQQANSFPPTFGQGTRLEMKRTVAAPSVFIFPPSDEQLKSGTASVVCLLNNFYPREAKVQWKVDNALQSGNSQESVTEQDSKDSTYSLSSTLTLSKADYEKHKVYACEVTHQGLSSPVTKSFNRGEC
heavy 2: QVQLQESGPGLVKPSGTLSLTCAVSGGSISSYSWWSWIRQPPGKGLEWIGELYHSGSTNYNPSLKSRVTISVDKSKNQFSLKLRSVTAADTAVYYCVRGVATIDYWGQGTLVTVSSASTKGPSVFPLAPSSKSTSGGTAALGCLVKDYFPEPVTVSWNSGALTSGVHTFPAVLQSSGLYSLSSVVTVPSSSLGTQTYICNVNHKPSNTKVDKRVEPKSCDKTHTCPPCPAPEFERGPSVFLFPPKPKDTLMISRTPEVTCVVVDVSHEDPEVKFNWYVDGVEVHNAKTKPREEQYNSTYRVVSVLTVLHQDWLNGKEYKCKVSNKALPAPIEKTISKAKGQPREPQVYTLPPSREEMTKNQVSLTCLVKGFYPSDIAVEWESNGQPENNYKTTPPVLDSDGSFFLYSRLTVDKSRWQQGNVFSCSVMHEALHNHYTQKSLSLSPG
light 2: QSALTQPPSASGSPGQSVTISCTGTSSDVGGYNFVSWYQQDPGKAPKLLIYEVTKRPSGVPDRFSGSKSGNTASLTVSGLQAEDEADYYCSSYAGSNNVMFGGGTKLTVLGQPKAAPSVTLFPPSSEELQANKATLVCLISDFYPGAVTVAWKADSSPVKAGVETTTPSKQSNNKYAASSYLSLTPEQWKSHRSYSCQVTHEGSTVEKTVAPTECS
notes: Human IgG1 bispecific made by controlled Fab-arm exchange of IgG1-FAPα-FERL and IgG1-DR4-FERR; monovalent for FAPα and for DR4; also called GEN1057
EC50 [1]: 0.75 µg/mL | EC50 [2]: 0.73 µg/mL | EC50 [3]: 1.89 µg/mL | EC50 [4]: 0.48 µg/mL | EC50 [5]: 0.046 µg/mL | EC50 [6]: 0.051 µg/mL

Reference: US20250002610A1 (Genmab, published 2025)
